This is an account of results in the RNAGym collection of RNA variant scans (doi:10.1073/pnas.2313332121).

Variants at the floor of the assay were thinned out.

The chains are these.
B1: TPR 5TU (parent)
chain: GGAUCUUCUCGAUCUAACAAAAAAGACAAAUCUGCCACAAAGCUUGAGAGCAUCUUCGGAUGCAGAGGCGGCAGCCUUCGGUGGCGCGAUAGCGCCAACGUUCUCAACUAUGACACGCAAAACGCGUGCUCCGUUGAAUGGAGUUUAUCAUG

The variants in the series derive from B1. In words: polymerase ribozyme fitness, log enrichment relative to wild type (log ratio); higher = more active; in vitro selection for triplet polymerase activity. In outline:
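One round of in vitro selection, in triplicate, was applied to PCR-built, transcribed mutant libraries of each subunit of a heterodimeric triplet polymerase ribozyme. The steps were annealing with a biotinylated primer, partner subunit and triplets, incubation frozen at −7 °C, gel excision of extended constructs, streptavidin-bead capture and RT-PCR. Fitness is the logarithm, base 2, of genotype enrichment over wild-type enrichment from inverse-variance-weighted replicate averages of Illumina-sequenced inputs and outputs, keeping genotypes with ≥10 input reads and ≥1 read per output.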
For the variant C27A U101G, the “polymerase ribozyme fitness (log ratio)” value was -3.63.

As for C27A C54G G67U G84C, the “polymerase ribozyme fitness (log ratio)” value is not above -4.2.

Regarding C27G A39G C93G G112A C129G, the “polymerase ribozyme fitness (log ratio)” value is not above -4.2.

For C27A A49C G59C G74C G136U, the “polymerase ribozyme fitness (log ratio)” value was not above -4.2.

Turning to C27A A29G U33G C35A A60G C93G A97G A120U G133U U134G, the “polymerase ribozyme fitness (log ratio)” value is not above -4.2.

On to C27G C35G A64U A73G C79A C85G A91U, for which the “polymerase ribozyme fitness (log ratio)” value is not above -4.2.

Take A26C U78A G84A G126C C149G: the “polymerase ribozyme fitness (log ratio)” value was not above -4.2.

As to C27U A40U G59U A107G C116A, the “polymerase ribozyme fitness (log ratio)” value is not above -4.2.

A26U A52C C96A: the “polymerase ribozyme fitness (log ratio)” value was -3.2.

Turning to C27G G141U, the “polymerase ribozyme fitness (log ratio)” value is -4.04.

Consider C27A A40G U55A G83C, for which the “polymerase ribozyme fitness (log ratio)” value is not above -4.2.

For A26C G68C A122C U135C U139G U145G, the “polymerase ribozyme fitness (log ratio)” value is not above -4.2.

In the case of C27U A39U U53A C93U, the “polymerase ribozyme fitness (log ratio)” value is not above -4.2.

In the case of C27G C32G C36G A73G C93G U135A, the “polymerase ribozyme fitness (log ratio)” value is -4.18.

In the case of A26G U31A G48A A60C C76G A107C A119U, the “polymerase ribozyme fitness (log ratio)” value is not above -4.2.

As for C27G G62A A64G A73C G88U C99U A107U G124A U130C U148A, the “polymerase ribozyme fitness (log ratio)” value was not above -4.2.

In the case of C27U A30G A52C, the “polymerase ribozyme fitness (log ratio)” value was not above -4.2.

With C27G C36G C85U, the “polymerase ribozyme fitness (log ratio)” value was not above -4.2.

With C27G C75G C93A C103G U134A, the “polymerase ribozyme fitness (log ratio)” value is not above -4.2.

Consider A26G A39G G42C A49G U55A U56A U130A U135G, for which the “polymerase ribozyme fitness (log ratio)” value was not above -4.2.

For the variant A26U A73U A91U C96G A137C, the “polymerase ribozyme fitness (log ratio)” value was not above -4.2.

With A26G U53A C85U A91G G133A U139A, the “polymerase ribozyme fitness (log ratio)” value was not above -4.2.

For the variant A26U A40G A41C A49G C51U A52C U90A G92A C95U A97C C118A A137G U151C, the “polymerase ribozyme fitness (log ratio)” value is not above -4.2.

Consider C27A G50U C57U A60C C116G U146G A147C, for which the “polymerase ribozyme fitness (log ratio)” value is not above -4.2.

Regarding A26U C85U C105U, the “polymerase ribozyme fitness (log ratio)” value is -1.82.

In the case of C27U A28U C76U U78G C93G A119G, the “polymerase ribozyme fitness (log ratio)” value was not above -4.2.

Consider C27A U56A, for which the “polymerase ribozyme fitness (log ratio)” value was -3.7.

As for C27U A37C G59U G92C G117C, the “polymerase ribozyme fitness (log ratio)” value is -3.65.

Regarding A26G A73U C85A U151G, the “polymerase ribozyme fitness (log ratio)” value was not above -4.2.

Regarding A26G U55G C87A A115U C118U C149G, the “polymerase ribozyme fitness (log ratio)” value was not above -4.2.

In the case of A26U G50C, the “polymerase ribozyme fitness (log ratio)” value is not above -4.2.

As to C27U A41C G81U C96A, the “polymerase ribozyme fitness (log ratio)” value is -2.31.

With C27G G67C C85A, the “polymerase ribozyme fitness (log ratio)” value is not above -4.2.

In the case of A26U U55G G86C C96U A97C C99A U102G, the “polymerase ribozyme fitness (log ratio)” value was not above -4.2.

As for C27U A40C U55A C114U U139G, the “polymerase ribozyme fitness (log ratio)” value was -3.95.

As to C27U A47U A49C G117A, the “polymerase ribozyme fitness (log ratio)” value is not above -4.2.

Turning to C27A A60U G133A U135C A150U, the “polymerase ribozyme fitness (log ratio)” value was not above -4.2.

In the case of C27A C93U C116U G126A A147G, the “polymerase ribozyme fitness (log ratio)” value is not above -4.2.

As to C27A C85A, the “polymerase ribozyme fitness (log ratio)” value is not above -4.2.

On to C27A U53A A119C, for which the “polymerase ribozyme fitness (log ratio)” value is not above -4.2.

For A26U G59C C103G A106C C132U, the “polymerase ribozyme fitness (log ratio)” value was not above -4.2.

Consider C27G A30G A39U C87A, for which the “polymerase ribozyme fitness (log ratio)” value was not above -4.2.

With A26U C36G U134A G143U U144C, the “polymerase ribozyme fitness (log ratio)” value was not above -4.2.

With A26C U44G A91U U145C, the “polymerase ribozyme fitness (log ratio)” value was not above -4.2.

On to A26G G83A G88A G94U C149G, for which the “polymerase ribozyme fitness (log ratio)” value was -4.19.

As for A26G G88C A91C C93A C116U, the “polymerase ribozyme fitness (log ratio)” value is not above -4.2.

For the variant A26U A41C U44A G59A G126U G128A A137G, the “polymerase ribozyme fitness (log ratio)” value was not above -4.2.

As to C27A A60U A91U A106U, the “polymerase ribozyme fitness (log ratio)” value is not above -4.2.

Turning to A26U U31A G86U A147C, the “polymerase ribozyme fitness (log ratio)” value is not above -4.2.

Regarding C27A A30C A89G G92A C105U G140U, the “polymerase ribozyme fitness (log ratio)” value was -3.96.

As to A26U A49C, the “polymerase ribozyme fitness (log ratio)” value is not above -4.2.

For the variant A26U A52G C85U, the “polymerase ribozyme fitness (log ratio)” value is -1.69.

For the variant A26C C57U C85G G92U, the “polymerase ribozyme fitness (log ratio)” value was not above -4.2.

With A26U U151C, the “polymerase ribozyme fitness (log ratio)” value is not above -4.2.

Turning to C27U A28U U53G C93A, the “polymerase ribozyme fitness (log ratio)” value was not above -4.2.

In the case of C27A U55A C76U A98G, the “polymerase ribozyme fitness (log ratio)” value was not above -4.2.

Turning to C27U A39U A73G C79U C93A, the “polymerase ribozyme fitness (log ratio)” value was not above -4.2.

Turning to A26U U31G G42C C93G A137G, the “polymerase ribozyme fitness (log ratio)” value is not above -4.2.

In the case of A26U C54A G65A A98G, the “polymerase ribozyme fitness (log ratio)” value is -4.2.

Take C27U A49C G88A U111G: the “polymerase ribozyme fitness (log ratio)” value was not above -4.2.

As for A26G C35G C57A G81C C87G, the “polymerase ribozyme fitness (log ratio)” value is not above -4.2.

As for A26G G46A G48C C51U G71C C103U A120G C149G, the “polymerase ribozyme fitness (log ratio)” value was not above -4.2.

Take A26G A29C G50A U90G: the “polymerase ribozyme fitness (log ratio)” value is not above -4.2.

With C27G C51U C54A U78A G94C, the “polymerase ribozyme fitness (log ratio)” value was not above -4.2.

As to C27A G50A C54U C95A, the “polymerase ribozyme fitness (log ratio)” value was not above -4.2.

With C27G C85A U90G, the “polymerase ribozyme fitness (log ratio)” value was not above -4.2.

Consider A26C C105U, for which the “polymerase ribozyme fitness (log ratio)” value is -2.13.

Turning to A26U C125A, the “polymerase ribozyme fitness (log ratio)” value is -1.8.

On to C27G G59U A60C A91U C105U U145C, for which the “polymerase ribozyme fitness (log ratio)” value was not above -4.2.

Take A26U A52U U135A: the “polymerase ribozyme fitness (log ratio)” value is -2.83.

With C27G C35U G74U C118U U130A A137U, the “polymerase ribozyme fitness (log ratio)” value is not above -4.2.

Regarding A26C C51U A66G U77A C149G, the “polymerase ribozyme fitness (log ratio)” value was not above -4.2.

A26U A73U G74U C96A: the “polymerase ribozyme fitness (log ratio)” value was not above -4.2.

Regarding A26C G59U A89C A113G C132G G141U, the “polymerase ribozyme fitness (log ratio)” value was not above -4.2.

As to A26G C27U G46U G50U C75A, the “polymerase ribozyme fitness (log ratio)” value was not above -4.2.

With A26U U33G G92A C95U U134G, the “polymerase ribozyme fitness (log ratio)” value was not above -4.2.

A26U C118G: the “polymerase ribozyme fitness (log ratio)” value was -2.12.

Regarding C27U A97U C116U A120C, the “polymerase ribozyme fitness (log ratio)” value was -3.06.

For the variant A26U G86U, the “polymerase ribozyme fitness (log ratio)” value was -3.84.

With C27U A37U C125U, the “polymerase ribozyme fitness (log ratio)” value was -3.74.

C27G A39G G83A G143U: the “polymerase ribozyme fitness (log ratio)” value is not above -4.2.

Regarding A26G C27U A47G C54A U56G G86A, the “polymerase ribozyme fitness (log ratio)” value is not above -4.2.

Regarding A26G G59U, the “polymerase ribozyme fitness (log ratio)” value is -3.78.
